Experimental data published in article PMC8151308.

Biological target: LEL CD81-SA labelled with Cy3 (UniProt P60033)
Assay: dynamic light scattering + other: nanoparticle tracking analysis; nanotraps (LEL CD81-SA-Cy3 on PEG-b-PLA nanoparticles, 0.50 mg/mL) mixed with HC VMPs (E2-GFP on PEG-b-PLA nanoparticles, 0.15 mg/mL) in 0.01 M sodium phosphate buffer pH 7.4, 25 °C; aggregation monitored after 5, 10, 20 and 30 min

Substance “chimeric E2 core-GFP protein (E2 core, 412-645 a.a., of hepatitis C virus fused with superfolder GFP) (from UniProt P27958 412-645) (domain or fragment)” has a percentage of aggregates (DLS, after 30 min) of 33%.
